The subject of one test is TCR-ζ. Description: Cell-free association of TCR-ζ with the actin cytoskeleton (detergent soluble lysate, newly polymerized pellet). The test is classed as biochemical, murine. As to the method: Freshly isolated murine thymocytes or lymph node T cells, or CD25/ζ-expressing T cell hybridomas, were washed 3 times in BSS and incubated in the presence or absence of cytochalasin D for 1.5 hrs at 4° C., solubilized with 0.5% NP-40 in a Tris buffered saline solution (TBS; 150 mM NaCl, 10 mM Tris, pH 7.3) containing protease and phosphatase inhibitors (0.2 mM VO3, 10 mM NaF, 1 mM PMSF, and 1 mg/ml each of Aprotinin, Leupeptin, and α-l-antitrypsin) and centrifuged at 10,000 rpm for 10 min to pellet the insoluble material. […] To increase actin polymerization, the Mg^2+ concentration was increased to 2 mM. […] Immunoprecipitation of the detergent soluble fraction with anti-TCR-ζ antibody was then performed as described in Example 4. The pellet and the anti-TCR-ζ immunoprecipitate were resolved by SDS-PAGE gel electrophoresis and immunoblotted with anti-TCR-ζ antibody.

Another test concerns IL-2 production. Description: IL-2 production by T cells expressing chimeric molecules after antibody cross-linking. The test is classed as cell-based. The conditions noted are these: for IL-2 production, fold less than the wild-type CD8/ζ: maximal stimulation with anti-CD8-α antibody, 24 hours, FIG. 4. As to the method: Microcultures of 0.25 ml were prepared containing 10^5 responding T cells expressing CD8/ζ, CD8/ζD67-126, CD8/ζY153E, CD25/ζ or CD25/ζY153E. For stimulation, microtiter wells were precoated with 50 μl of a phosphate-buffered saline solution containing varying concentrations of purified anti-CD8-α antibody (19/178) or anti-hCD25 antibody (B1.49.9) to cross-link the CD8/ζ, CD8/ζD67-126 and CD8/ζY153E, or CD25/ζ and CD25/ζY153E, respectively, on the surface of the T cells. Control wells were coated with an irrelevant antibody. After 2 hours at room temperature and 1 hr at 4° C., the wells were washed three times with fetal calf serum-containing tissue culture medium. […]. After 24 hours in culture, the supernatants were harvested and assayed for IL-2 content using methods generally described in Gillis et al. (J. Immunol. 120:2027-2032, 1978). A concentration of 1 U/ml of IL-2 was the minimum detectable in this assay.

Test [1] has as its system BW 5147 α−β− thymoma transfectants. The test is described as follows: Association of chimeric or truncated TCR-ζ molecules with the cytoskeleton upon receptor ligation (immunoblot of detergent insoluble pellet). The test is classed as cell-based. The following applies: substitution of the distal COOH-terminal tyrosine of the third ITAM. A general note: In western blotting, separated proteins are transferred to a membrane and probed.

We go through five molecules from patent US6500430B1, “Product and process to regulate actin polymerization in T lymphocytes” (National Jewish Medical and Research Center, priority 1995, dated 2002).

Regarding `[Mg+2]` [Mg^2+, reference compound], the “TCR-ζ binding with actin polymerization induced in vitro” value in the test on TCR-ζ (2 mM Mg2+ alone) is “without additional TCR-ζ binding”.

Take “CD8/ζD67-126: truncated CD8/ζ chimera expressing only intact ζc domain (SEQ ID NO:29) (RAKFSRSAETAANLQGTKGERRRGKGHDGLYQGLSTATKDTYDALHMQTLAPR)”: in the test with IL-2 production, the “IL-2 production, fold less than the wild-type CD8/ζ” value is recorded as 40 fold.

B1: CD25/ζ: chimera of extracellular and transmembrane regions of CD25 and the cytoplasmic domain of TCR-ζ (protein)
chain: ELCDDDPPEIPHATFKAMAYKEGTMLNCECKRGFRRIKSGSLYMLCTGNSSHSSWDNQCQCTSSATRNTTKQVTPQPEEQKERKTTEMQSPMQPVDQASLPGHCREPPPWENEATERIYHFVVGQMVYYQCVQGYRALHRGPAESVCKMTHGKTRWTQPQLICTGEMETSQFPGEEKPQASPEGRPESETSCLVTTTDFQIQTEMAATMETSIFTTEYQVAVAGCVFLLISVLLLSGLRAKFSRSAETAANLQDPNQLYNELNLGRREEYDVLEKKRARDPEMGGKQQRRRNPQEGVYNALQKDKMAEAYSEIGTKGERRRGKGHDGLYQGLSTATKDTYDALHMQTLAPR
As to B1, in the test with TCR-ζ (in vitro activating (MgATP) condition, depleted from the pellet under actin depolymerizing conditions), the “Co-sedimentation with the actin cytoskeleton in vitro” value is given as “co-sediments with the actin cytoskeleton”.

B2: CD25/ζY153F: CD25/ζ with the tyrosine at residue 153 substituted for a phenylalanine (SEQ ID NO:31) (protein)
chain: RAKFSRSAETAANLQDPNQLYNELNLGRREEYDVLEKKRARDPEMGGKQQRRRNPQEGVYNALQKDKMAEAYSEIGTKGERRRGKGHDGLYQGLSTATKDTFDALHMQTLAPR
As for B2, the “Effect of removal of the distal tyrosine (Y153F) on cytoskeletal association” value in test [1] is given as “almost completely abrogated cytoskeletal association”. Also, in the test with IL-2 production (receptor ligation), the “Tyrosine phosphorylation of a set of proteins induced by receptor ligation, compared with the intact CD25/ζ chimera” value was “qualitatively and quantitatively indistinguishable”.

B3: CD8/ζY153E: substituted CD8/ζ chimera (SEQ ID NO:30) (protein)
chain: RAKFSRSAETAANLQDPNQLYNELNLGRREEYDVLEKKRARDPEMGGKQQRRRNPQEGVYNALQKDKMAEAYSEIGTKGERRRGKGHDGLYQGLSTATKDTEDALHMQTLAPR
With B3, in the test with IL-2 production, the “IL-2 production, fold less than the wild-type CD8/ζ” value was determined as 100 fold.
